Test: yeast display, Sf9 membrane polyspecificity reagent, FACS + sequencing; frameworks hold sequencing errors
How it was run: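 In a synthetic yeast display library (Saccharomyces cerevisiae BJ5465), nanobody expression was induced with galactose for 36–48 hours. FACS gates were set low and high (top ~1%) using anti-HA fluorescence for expression and streptavidin fluorescence for binding of the Sf9 membrane reagent. Each polyreactivity label is drawn from the gate of origin.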

| Sequence | polyreactivity (PSR sort gate) |
| --- | --- |
| QVQLVESGGGLVQAGGSLRLSCAASGRTFTRYAMGWYRQAPGKERELVAAISGGGGSTYYADSVKGRFTISRDNAKNTVYLQMNSLKPEDTAVYYCAAGPWFYYWGQGTQVTVSS | low polyreactivity |
| QVQLVESGGGLVQAGGSLRLSCAASGRTFGGYAMGWYRQAPGKERELVAAISSSGTRTYYAESVKGRFTISRDNAKNTVYLQMNSLKPEDTAVYYCAAYRVIVWYAMDYWGQGTQVTVSS | high polyreactivity |
| QVQLVESGGGLVQAGGSLRLICAASGSTFSQYTMGWYRQAPGKERELVAAITGSGGGTYYADSVKGRFTISRDNAKNTVYLHMESLKPVDTAVYYCAALTLNEKYTSRRGVYYWGQGSQVTVSS | high polyreactivity |
| QVQLVESGGGLVHAGGSLRLSCAASGRIFIANAMGWYRQAPGNERELVAGIRGSGGRTYYADSVKGRFTISRDNAKNTVYLQMNSLKPEDTAVYDCNARTPGRLGRFDYWGQGTQVTVSS | low polyreactivity |
| QVQLLESGGGLVQAGGSLRLSCAASGRIFGSNAMGWYRQAPGKERELVAAITRGGSTNYADSVKGRFTISRDNAKNTVYLQMNSLKPEDTAVYYCAVRWYRKYNYWGQGTQVTVSS | high polyreactivity |
| HVQLVESGGGLVQAGGSLRLSCAASGFTFVPYAMGWYRQAPGKERELVAAISSGGSTYYADSVKGRFTISRDNAKNTVYLQMNSLKPEDTAVYYCATTGWYRYGRKFYYWGQGTQVTVSS | high polyreactivity |
| QVQLVESGGGLVQAGGSLRLSCAASGITFYPNGMGWYRQAPGKEREFVAAITSSGGSTYYADSVKGRFRISRDNAKNTLYLQMNSLKPEDTAVYYCAAQYYPISYYGYGYWGQGTQVTVSS | low polyreactivity |
| QVQLVESGGGLVQAGGSLRLSCAASGSIFRIYAMGWYRQATGKETELVAAITWSGGSTYYADSVKGRFTISRDNAKNSVYLQMNSLKPEDTAVYYCAAVVIYWYQRVGYRSDYWGQGTQVTVSS | high polyreactivity |
| QVQLVESGGGLVHAGGSLRLSCAASGFTFRSYTMGWYRQAHGKERELVAAITSRGTSTYYADSVKGRFTISRDNAKNTVYLQMNSLKPEDTAVYYCAAPIYNGYASWQVYYWGQGTQVTVSS | high polyreactivity |
| QVQHVESGGGLVQAGGSLRLSCAASGFTSIMYAMGWYRQAPGKERDLVASISISDGSTYYADSVKGRFTISRDNAKNTVYLQMNILKPEDTAVYYCAADVYVWYTYSYDYWGQGTKVTVSS | low polyreactivity |
| QVQLVESGGGLVQAGGSLRLSCAASGLTFPWYAMGWYRQAPGKERELVASINSSTGSTYYADSVKGRFTISRDNAKNTVYLQMNSLKPEYTAVYYCAAVEYGNMDWGQGTQVTVSS | low polyreactivity |
| QVQLVESGGGLVQAGGSLRLSCGASGSTSDIYAMGWYRQAPGKESEFGAAISLTGGTTYYADSVKGRFTISCENAKNTVYLQMNSLKQEDTAVYYCNADVGWWGYDDDYWGQGTQVTVSS | high polyreactivity |
| QVQLVESGGGLVQAGGSLRLSCAASGRIFKYYARGGYRQAPGKERELVAAISGSGGSTFYADSVKGRFTISRDNAKNTVYLQMNSLKPEDTAVYYCNADEVVWGYNYWGQGTQVTVSS | low polyreactivity |
| QVQLVESGGGLVQARGSLRLSCAASGSTFPYVMGWYRQAPWKERELVAAISQRTGSTYYADSVKGRFTISRDNAKNTVYLQMNSLNPEDTAVYYCAKPGYLRPSRYDYWGQGTQVTVSS | high polyreactivity |
| QVQLVESGGGIVQAGGSLRLSCAASGRSFYRYARGWDRQAPGKERELVASITRSGITHYADSVKGRFTISRDNAKNPVYLQMISLKPEDTAVYYCNGRRGSPAPYDYWGQGTQVTVSS | high polyreactivity |
| QVQLVESGGGLVQAGGSLRLSCAASGITFRWYAMGWYRQAPGKERELVAAISSSGGSTYYADSVKGRFTISRDNAKNTVYLQMNSLKPEDTAVYYCAAYTSYASDYWGQGTQVTVSS | high polyreactivity |
| QVQLVESGGGLVQAGGSLRLSCAASGGTFYYYAMGWSRQAPGKERELVAAISWSGVSTSYADSVKGRFTISRDNANNTVYLQMNSLKPEDTAVYYCAAGPFYYTGYEGVYWGQGTQVTVSS | high polyreactivity |
| QVQLVESGGGLVQAGGSLRLSCAASGFTFWAYAMGWYRQAPGKERELVAVISGSGGRTYYADSVKGRFTISRDNAKNTVYLQMNSLKPEDTAVYYCNARYPRLHRTYNYWGQGTLVTVSS | high polyreactivity |
| QVQLVESGGGLVQAGGSLRLSCAASGFILDTYAMGWYRQAPGKERELVAAISASGSSTYYADSVKGRFTISRDNAKNTVYLQMNSLKPEDTAVYYCAAKDTGYGYGFPRLDYWGQGTQVTVSS | low polyreactivity |
| QVQLVESGGGLVQAGGSLRLSCAASGFTFGAYAMGSYRQAPGKERELVASINWSGGSTYYADSVKGRFTISRDYAMNTVYFQMNRLKPEDTAVYYCAARESYPGYGYDHWGQGTQVTVSS | low polyreactivity |
| QVQLVESGGGLVQAGGSLRLRCAASGSIFFFYAMGWYSQARGKEREFVAGITYSGGITYYADSVKGRFTISRDNAKNTDYLQMNSLKPEDTAVYFCDYGGGVYQYGYWGQGTQVTVSS | low polyreactivity |

| Sequence | polyreactivity (PSR sort gate) |
| --- | --- |
| QDQLVDSGGGLVQAGGSLRLSCAASGRISGYYAMGWYRQAPGKERELVASITYRGGSTYYADSVKGRFTISRDNAKNTVYLQINSLKPEDTAVYSCNFRYRPNRGSIGQPNSGKNWYDYWGLGTQVTVSS | high polyreactivity |
| QVQLVESGGGLVQAGGSLRLSCAASGSIFKANTMGWSRQAPGKERELVAAISGSGGRTRYADSVRGRFTISRDNAKNTVYLQMNSLKPDVTAVYYCAATDRGGYYYWGQGTQVTVSS | high polyreactivity |
| QVQLVESGGGLVQAGGSLRLSCAASGHTFSSYAMGWYRQAPGKERELVAAISVSATRTYYADSVKGRFTISRDNAKNTVYLQMNSLKPEDTAVYYCAARPVQFTYGYWGQGTQVTVSS | high polyreactivity |
| QVHLVESGGGLVQAGGSLRLSCAASGIILYGYAMGWYRQAPGKERELVAAITKSGGSTYYADSVKGRFTISRDNAKNTVYLLMNSLKPEDTAVYYCAAKLWGIWYYGYRPDDYWGQGTQVTVSS | low polyreactivity |
| QVQLVESGGGLVQAGGSLRLSCAASGSTFGSYAMGWYRQAPGKERELVAGISWSGGRTYYADSVKGRFTISRDNAKNTVYLQMNSLKPEDTAVYYRARDTGYYYARYNYWGQGTQVTVSS | low polyreactivity |
| QVQLVESGGGLVQAGGSLRLSCAASGFTFDRYANGWYRQAPWKAWELVAAITRRGGSTYYADSVKGRFTISRDNAKKTVYLQMNSLKPEDTAVYYCNARTYVTVDYDYCGQGTQVTVSS | high polyreactivity |
| QVQLVESGGGLVQAGGSLRLSCAASGRTFGAYAMGWYRQAPGKERELVASISRSGGTTYYADSVKGRFTISRDTAKNTVYLQMNSLKPEDTAVYYCAAQYVRYGHYYWGQATQVTVSS | high polyreactivity |
| QVQLVESGGGLVQAGGSLRLSCAASGLISDRNAMGWYRQAPGKERELVASIRSGGSTYYADSVKGRFTISRDNAKNTVYLQMNSQKPEDTAVYYCAAGGGHTPVSYYLVPYMDYWGQGTQVTVSS | low polyreactivity |
| QVQHVDTGGGLVQAGGSLRLSCAASGSIFGRYAMGWSRQAPGKERELVASINWNSGSTYYADSVKGRFTISRDNAKYTVYLQMNSLKPEDTAVYYCAAAALGYYGYRGFDYWGQGTQVTVSS | low polyreactivity |
| QVQLVESGGGLVQAGGSLRLSCAASGSTFKSYAMGWYRQAPGKERELVAAINWSGGSTYYADSVKGRFTISRDNAKNTVYLQMTSLKPEDTAVYYCNAVYAVRSYDSWGQGTQVTVSS | high polyreactivity |
| QVQLVESGGGLVQAGGSLRLSCAASGRTFQNYAMGWYRQAPGKERELVADITSGGSTYADSVKGRFTISRDNAKNTVYLQMNSLKPEDTAVYYCNADRTYPEPAEYYYWGQGTQVTVSS | low polyreactivity |
| QVQLVESGGGLVQAGGSLRLSCAASGRIFYPNAMGWYRQAPGKERELVAAISWSGGSTYYADSVKGRFTISRDNAKNTVYLQMNSLKPEDTAVYFCAAKPYQVSSYDFSLRDYWGQGTQVTVSS | low polyreactivity |
| QVELVESGGGLVQAGGSLRLSCAGSGIIFPYYVMGWYRQAPGKARELVAAINSGGRTYYADSVKGRFTISRDNAKNSVYLQMNSLNREDTAVYYCAATQSTNRMDHWGQGTQVTVSS | low polyreactivity |
| QVQLVESGGGLVQAGGSLRLSCAASGIIFSTYAMGWYRHAPWKERELVAAITRGDSTNYADSVKGRFTISRDNAKNTVYLQMNSLKPEDTAVYYCAVDKRYGRVVGRDYDYWGQGTQVTVSS | high polyreactivity |
| QVQLVESGGGLVQAGGILRLTCAASGRTFYKNAMGWYRQAPGKERELVAAIDWIDGNTYYADSVKGRFTISRDNAKNTVYLQMNSLKPEDTAVYYCAAEGYDLGDYWGQGTQVTVSS | low polyreactivity |
| QVQLVESGGGLVQAGGSHRLSCAASGRIIESYAMGWYRQAPGKERELVAAISSNDGSTYYADSVKGRFTISRDNAKNTVYLQMNSLKPEDTAVYDCAAELGQVDYGGPSYDYWGQGTQVTVSS | low polyreactivity |
| QVQLVESGGGLVQAGGSLRLSCAASGFIFYLNAMGWSRKAPGKERELVAAISSSGGRTYYADSVKGRFTISRDNAKNTVYFQMNSLKAEDTAVYYCNAVTLYRSRTDGYWGQGTQVTVSS | high polyreactivity |
| QVQLVESGGGLVQAGGSLRLSCAASGRIFAQYAMGWYRQAPGKERELVADISSGVRTYADSVKVRFTISRDNAKNTVYLQMNSLKPEDTAVYYCNAYYIIFTRNDYWGQGTQVTVSS | low polyreactivity |
| QVQLVESGGGLVQAGGSLRLSCAASGSTFTLNAMGWYRQAPGKECELVADISWSSGRTYYADSVKGRFTISRDNAKNTVYLHMNSLKPEDTAVYYCATDDFWNVKFYAYYPEFDYWGQGTQVTVSS | low polyreactivity |
| QVQLVESGGGLVQAGGSLRLSCAASGIIFSVYAMGWYRQAPGTERELVAAISGSGGSTYYADSVKGRFTISRDNAKNTVYLQMNSLKPEDTAVYYCAARKKWSIRSDYWGQGTQVTVSS | high polyreactivity |

Source: the nanobody polyreactivity screen of Harvey et al. (2022)
